Assay [1] concerns the target T1, DNA ligase IV DNA binding domain (LigIV-DBD; residues 1-240), wild type (human, UniProt P49917 1-240).
T1 sequence (looked up): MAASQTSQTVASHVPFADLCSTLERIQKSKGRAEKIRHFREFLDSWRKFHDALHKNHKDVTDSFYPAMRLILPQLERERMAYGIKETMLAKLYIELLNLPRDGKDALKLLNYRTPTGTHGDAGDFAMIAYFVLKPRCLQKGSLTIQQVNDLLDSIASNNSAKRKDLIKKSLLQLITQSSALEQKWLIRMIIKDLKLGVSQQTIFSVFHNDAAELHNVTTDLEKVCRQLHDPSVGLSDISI
The assay is described as follows: fluorescence polarisation. A general note: Fluorescence polarisation rises when a labelled molecule tumbles more slowly, as on binding a larger partner.

The target in assay [2] is T1, DNA ligase IV DNA binding domain …. In words: ITC. (ITC needs no label: the signal is the heat of the interaction.)
The target of another assay is T2, LigIV-DBD D18H (human, UniProt P49917 1-240, D18H).
T2 sequence (looked up): T1 sequence (looked up) with D18H
The assay is described as follows: ITC.

Another assay concerns the target T3, LigIV-DBD V14A (human, UniProt P49917 1-240, V14A).
T3 sequence (looked up): T1 sequence (looked up) with V14A
In words: ITC.

Changes are numbered by the printed parent chain. Where no end group is shown, it is not given here.

Turning to DVPQWEVFFKR (also: 6-FAM label, position not given here) [6-FAM (6-carboxyfluorescein) labeled cArt-Pep], the binding result in assay [1] was “binds”.
Turning to DVPQWEVFFKR [cArt-Pep, peptide derived from the Artemis C-terminal region (485-DVPQWEVFFKR-495)], the dissociation constant Kd is 4.8 µM in assay [2], 9.1 µM in the assay with LigIV-DBD D18H and 13.6 µM with LigIV-DBD V14A. Also, in assay [2], the “stoichiometry N” value worked out at 1 ± 0.1.

As a reminder, the Kd is the equilibrium constant for the complex coming apart. A lower Kd goes with tighter binding. As a reminder, the stoichiometry N is the number of molecules, sites or subunits per partner or assembly.
